Test [1] addresses T1, His-caspase-8(184-384) (UniProt Q14790 184-384). Description: pull-down.
The target in test [2] is T1, His-caspase-8(184-384). As to the kind of experiment: pull-down. The source holds these as a separate data set.

Like-named read-outs stand apart in the source and are kept apart here.

T1 sequence (Q14790 184-384): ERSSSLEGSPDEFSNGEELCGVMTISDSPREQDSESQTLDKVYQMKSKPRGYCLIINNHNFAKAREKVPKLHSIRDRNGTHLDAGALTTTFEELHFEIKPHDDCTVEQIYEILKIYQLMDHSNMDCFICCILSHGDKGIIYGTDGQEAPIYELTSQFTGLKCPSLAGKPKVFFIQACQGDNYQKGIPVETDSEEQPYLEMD

B1: synthetic MUC1-CD(1-20) peptide (peptide)
peptide: CQCRRKNYGQLDIFPARDTY
As for B1, the binding result in test [1] is recorded as “binds”.

B2: GST-MUC1-CD(1-20) (domain or fragment, human)
chain: CQCRRKNYGQLDIFPARDTY
As to B2, the binding result in test [2] is “binds”.

(Values after publication PMC2536759 (Cancer research, 2008).)
